Experiment: yeast display, Sf9 membrane polyspecificity reagent, FACS + sequencing; frameworks hold sequencing errors
Method in brief: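 Polyreactivity labels are assigned by the sorting gate from which each nanobody was recovered. The gates were low and high (top ~1%), set on anti-HA fluorescence for expression and streptavidin fluorescence for reagent binding. Before sorting, galactose-induced (36–48 hours) yeast display cells were stained for 1 hour at 4 °C with 10% biotinylated, detergent-solubilized Sf9 membrane reagent.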

Sequence	polyreactivity (PSR sort gate)
QVQLVESGGGLVQAGGSLRISCAASGRTFYYYAMGWYRQAPGKEREFVARITSSGGSTSYADSVKGRFTISRDNAKNTVYLQMNSLKPEDTAVYYFNAVSTYTSDDYDYWGQGSQVTVSS	high polyreactivity
QVQLVESGGGLVQAGGSLRISCAASGRTFYYYVMGWYRQAPGKERELVAAISRGGRTYYADSVKGRFTISRDYAKNTVYLQMNSLKPEDTAVYSCNAVPRKSRHRYDYWGQGTQVTVSS	high polyreactivity
QVQLVESGGGLVQAGGSLRISCAASGRTLFNKARGRYRQAPGKERELVAAINWSGTSTYYADSVKGRFTISRDNAKNTVYLQMNSLKPEDTAVYYCAARYSTVSTRRKPYNYWGQGTQVTVSS	high polyreactivity
QVQLVESGGGLVQAGGSLRISCAASGRTLGAYALGWSRQAPGKERELVAVISRRGGSTYYADSVKGRFTISRVNAKNTVYLQMNSLKPEDSAVYYCARTTLLYRTLSPGEYWGQGTQVTVSS	high polyreactivity
QVQLVESGGGLVQAGGSLRISCAASGSICYYYGMGWYRQAPGKERELVAGISSRGGRTYYADSVKGRFTISRDNAKNTVYLQMNSLKPEDTAVYYGAADRYYYAYRYDPSGYWGQGTQVTVSS	low polyreactivity
QVQLVESGGGLVQAGGSLRISCAASGSIFASNAMGWYRQAPGKEREFVAAITWRTDRTYYADSVKGRFTISRDNAKNTVYLQMNSLKPEDTAVYYCAADTWFYRFYYWGQGTQVTVSS	high polyreactivity
QVQLVESGGGLVQAGGSLRISCAASGSIFDLNPMGGYRQAPGKERELVAAISSGGGTYYADSVKGRFTISRDNAKNTVYLQMNRLIPEDTAVYYCIRVTRWTSNYWGQCTQVTVSS	high polyreactivity
QVQLVESGGGLVQAGGSLRISCAASGSIFDRNAMGWYRQAPGKERELVAGISSGGGTNYADSVKGRFTISRDNAKNTVYFQMNSLKPEDTAVYYCAVYRYLSNRVKYDYWGQGTQVTVSS	low polyreactivity
QVQLVESGGGLVQAGGSLRISCAASGSIFGYYVMGWYRQAPGKERELVAAITGSVGDTYYADSVKGRFTISRDNAKNTVYLQMNSLKPVDTAVYYCNASNISPFRLLRSPMDYCGQGTQVTVSS	low polyreactivity
QVQLVESGGGLVQAGGSLRISCAASGSIFLIFAMGWYRQSPGKERELVAAITQRGGSTYYADSVKGRFTISRDNAKNTVYFQMDSLKPEDTAVYYCNARRYVLRYNRFYYWGQGTQVTVSS	high polyreactivity
QVQLVESGGGLVQAGGSLRISCAASGSIFWANAMGWYRQAPWKERELVAAISSSGGRTYYADSVKGRFTISRDNAKNTVYLQMNSLKPEDSAVYDCNKLRLAYYEQGDYWGQGTQVNVSS	high polyreactivity
QVQLVESGGGLVQAGGSLRISCAASGSIFYGNAMGWYRQAPGKERELVAAISKRGGSTYYADSVKGRFTISRDNAKNTVYLQMNSLKPEDTAVYYCAKATAGHTEYYYWGQGTQVTVSS	high polyreactivity
QVQLVESGGGLVQAGGSLRISCAASGSIFYQYAMGWYRQAPGKERELVAGITWSGGSTYYADSVKGRFTISRDNAKNTVYLQMNSLKPEDSAVYYCARRYRGGYFWGQGTQVTVSS	high polyreactivity
QVQLVESGGGLVQAGGSLRISCAASGSILGLYAMGWYRQAPGKERELVAAITYRGGRTDYADSVKGRFTISRDNAKNTVYLQMNSLKPEDTAVYYCAAGYLPRPRYSTSYLYYYWGQGTQVTVSS	high polyreactivity
QVQLVESGGGLVQAGGSLRISCAASGSISSDNVMGWYRQAPGKERELVAAISSGTSTHYADSVKGSFTISRDNAKNTVYLQMNSLNQEDTAVYYCAAYFYRQYLYFLYEYDYWGQGTQVTVSS	low polyreactivity
QVQLVESGGGLVQAGGSLRISCAASGSIVYPYAMGWYRQAPGKERELVAAISYSGGSTYYADSVKGSFTISRDNAKNTVYLQMNSLKPEDTAVYYCNVYAGQYGMNYWGQGTQVTVSS	high polyreactivity
QVQLVESGGGLVQAGGSLRISCAASGSNFTRYAMGWYRQAPGKERELVAAISNRGGRTYYADSVKGRFTISRDNAKNTVYLQMNSLKPEDTGVYYCNAATTRRIPQSDNYWGQGTQVTVSS	high polyreactivity
QVQLVESGGGLVQAGGSLRISCAASGSPIWNYVMRWYRKAPGKVRDLVAAISIVGSTYYADSVKGRFTSSRDNAKNTVYFELNILKPEDTAVNYCNAGYFGGSNASKVRLSYDHWGQGTDVTVSS	low polyreactivity
QVQLVESGGGLVQAGGSLRISCAASGSTFEVNAMGWYRQAPGKERELVAAISYRGTSTYYADSVKGRFTISRDNAKNTVYLQMNSLKPEDNAVYYCAAEWYDWYWEYDSWGQGTQVTVSS	high polyreactivity
QVQLVESGGGLVQAGGSLRISCAASGSTFEYYAMGWYRQAPGKERELVATISIDGRTNYADSVKGRFTISRDNAKKTVYLQMNSLKPEDTAVYYCAARPYWRHRYDYWGQGTQVTVSS	low polyreactivity
QVQLVESGGGLVQAGGSLRISCAASGSTFFYYSMGWYRQAPGKEWEFVAHITSSDASTHYADSVKGRFTISRDNAKNTVNLQMNSQQPEDTAVYYCAADRYCGQANYYWGQGTQVTVSS	low polyreactivity
QVQLVESGGGLVQAGGSLRISCAASGSTFGWYTMGWYRQAPGKERELVAAISQGGGRTRYADSVKGRFTISRDNAKNTVYLQMNSLKPEDTAVYYCAATYYHRPYISNYGYWGQGTQVTVSS	high polyreactivity

Sequence	polyreactivity (PSR sort gate)
QVQLVESGGGLVQAGGSLRISCAASGSTFRLYAMGWYRQAPGKERELVAAISSNGVRTYYADSVKGRFTISRDNAKNTVYLQMNSLKPEDTAVYYCAARVYPAYPRGYDYWGQGTQVTVSS	high polyreactivity
QVQLVESGGGLVQAGGSLRISCAASGSTFSGNSMGRYRPAPGKERELFAAINSVRTYYADSVKGRFTISRDNAKNTVYLQMNSLIPEDTAVFSCAARQGYSSRFPAKGYYWGQGTQVTVSS	high polyreactivity
QVQLVESGGGLVQAGGSLRISCAASGSTFSQYTMGWYRQAPGKERELVAAITWSGGRTYYADSVKGRFTISRDNAKNTVYLQMNSLKPEDTAVYYCNRDISGSSGGELDYWGQGTQVTVSS	low polyreactivity
QVQLVESGGGLVQAGGSLRISCAASGSTFSYYAMGWYRQAPGKERELVADISWSGGSTYYADSVKGRFTISRDNAKNTVYLQMNSQKPEDTAVFYCAARGYVRWYNRYDYWGQGTQVTVSS	low polyreactivity
QVQLVESGGGLVQAGGSLRISCAASGSTFTTYAMGWYRQAPGKERELVARIRSSGGITYYADSVKGRFTISRDNAKNTVYLQMNSLKPEDTAVYYCAARGQFYNTRVGYWGQGTQVTVSS	high polyreactivity
QVQLVESGGGLVQAGGSLRISCAASGSTFWYHAKGWSRQAPGKERELVATITNSGGSTYYADSVKGRFTISRDNAKNTVYLQKNSLKPEDTAVYYGATDVYSGALLKYDFWGQGTQVTVSS	low polyreactivity
QVQLVESGGGLVQAGGSLRISCAASGSTLGYYAMGWYRPAPAKESELVAAISRGGGSTYYADSVKGRFTISRDNAKNTVYLQMNSLKPEVTAVYYCNKYFAYGDFDYWGQGTQVTVSS	high polyreactivity
QVQLVESGGGLVQAGGSLRISCAASGSTLQYYAMGWYRQAPGKERELVAAISWRGARTYYADSVKGRFTISRDNAKNTVYLQMNSLKPQDTAVYYCAAVYGSRGYAGNYYWGHGTQVTVSS	high polyreactivity
QVQLVESGGGLVQAGGSLRISCAASGSTSSRNAMGWYRQAPGKERELVAAITSGTRTYYADSVKGRFTISRDNAKNSVYLQRNSLKPEDTAVYYCARGRVSRYTKTDYDYWGQGSQVTVSS	high polyreactivity
QVQLVESGGGLVQAGGSLRISCAASGYIYGYNAMGWYRQAPGIAREFVAAIRFSGGSTYYADSVKGRFTISRDNAKNTVYLQMNSLKPEDTAVYYCAKRCYAHLIPIAYEYWGQGTQVTVSS	low polyreactivity
QVQLVESGGGLVQAGGSLRISCAASGYTFASYTMGWYRQAPGKERELVATISRGGGRTYYADSVKGRFTISRDNAKNTVYLQLNSLKPEDTAVYYCARPSTFFTGYRQAHFDYWGQGTQVTVSS	high polyreactivity
QVQLVESGGGLVQAGGSLRISCAASGYTFFNYAMGWSRQAPGKERELVAAITWSGGSRYYADSVKGRFTISRVNAKNTVYLQMNSLKPEDTAVYYCAADAITPRDPYVTEKLDYWGQGTQVTVSS	low polyreactivity
QVQLVESGGGLVQAGGSLRISCAASVSTFGRYAMGWYRQAPGKERELVAAISRGTTTNYADSVKGRFTISRDNAKNTVYLQMNSLKPEDTAVYYCAADQPSKRYYYWGQGTQVTVSS	low polyreactivity
QVQLVESGGGLVQAGGSLRISCAAYGRIFWWYAMGWYRQAPGKERELVASIRYGGGSTYYADSVKGRFTISRDNAKNTVYLQMNSLKPEDTAVYYCAARFKRHGRSDYWGQGTQVTVSS	high polyreactivity
QVQLVESGGGLVQAGGSLRISCADCGSIFEVNAMGWYRPAPGTERELVAAISSGDRTNYADSVKGRFTISRDNAKNTVYLQMNSLKPEDTAVYYCNKGAAWRPFFGPYYNYEYWGQGTQVTVSS	high polyreactivity
QVQLVESGGGLVQAGGSLRISCDASGRTFYYYAMGWYRQAPGKERELVASITITDSTNYADSVKGRFTISRDNAKNTVYLQMNSLKPEDTAVYYCAKRGWGTSFYLSDYWGQGTEVTVSS	low polyreactivity
QVQLVESGGGLVQAGGSLRISCDASGSTFYPYAMGWYRQAPGKERELVAAISSGGSTSYADSVKGRFTISRDNAKNTVYLQMNSLKPEDTAVYYCNASSPGAVPVYDYDYWGQGTQVTVSS	low polyreactivity
QVQLVESGGGLVQAGGSLRISCGASGSTFAQNVMGWDRQAPGKERELVAAITSSGSTNYADSVKGRFTISRDNAKNTVYLQMNSLKPEDSAVYYCAKDVLAPYSRHDYWGQGTQVTVSS	low polyreactivity
QVQLVESGGGLVQAGGSLRISSAASGFNSPSYAMGWYRQAPGKERELVAAISSGDSTNYADSVKGRFTISRDNAKNTVYLLMNSLKPEDTAVYYCAARYREQYDYWGQGTQVTVSS	low polyreactivity
QVQLVESGGGLVQAGGSLRISSAASGLTFYRYAIGWYRQAPGKERELVAAIRSNVVTTYYADSVKGRFTISRDNAKNTVYLKMNSLKPEDTAVYYCAARFGRSAPPGYDYWGQGTQVTVSS	high polyreactivity
QVQLVESGGGLVQAGGSLRISSAASGSTFSRYAMGWYRQAPGKERELVAAISWRGGRTYYADSVKGRFTISRDNAKNTVYLQMNSLKPEDTAVYYCNAVSSFTSPRYDYWGQGTQVTVSS	high polyreactivity

Source: the nanobody polyreactivity screen of Harvey et al. (2022)
